Assay results reported in publication PMC10625650, “The WW domain of IQGAP1 binds directly to the p110α catalytic subunit of PI 3-kinase” (The Biochemical journal, 2023).

Biological target: T1, full-length untagged human p110α (catalytic subunit of PI 3-kinase) (human, UniProt P42336 1-1068, [35S]-methionine label)
T1 construct: human p110α (PIK3CA), full length, untagged; also called native p110α; unaltered wild-type p110α
Test: pull-down; 25 μg GST or GST fusion protein purified from bacteria, bound to glutathione-Sepharose beads; 1 pmol 35S-labelled in vitro translated protein (partially purified by ammonium sulfate precipitation); binding buffer 20 mM Tris–HCl pH 7.1, 125 mM KOAc, 0.5 mM EDTA, 1 mM DTT, 0.1% Tween20, 12.5% glycerol; sedimentation, SDS–PAGE, autoradiography or phosphorimaging; percent binding against input
Conditions: one partner purified

T1 sequence (P42336 whole entry): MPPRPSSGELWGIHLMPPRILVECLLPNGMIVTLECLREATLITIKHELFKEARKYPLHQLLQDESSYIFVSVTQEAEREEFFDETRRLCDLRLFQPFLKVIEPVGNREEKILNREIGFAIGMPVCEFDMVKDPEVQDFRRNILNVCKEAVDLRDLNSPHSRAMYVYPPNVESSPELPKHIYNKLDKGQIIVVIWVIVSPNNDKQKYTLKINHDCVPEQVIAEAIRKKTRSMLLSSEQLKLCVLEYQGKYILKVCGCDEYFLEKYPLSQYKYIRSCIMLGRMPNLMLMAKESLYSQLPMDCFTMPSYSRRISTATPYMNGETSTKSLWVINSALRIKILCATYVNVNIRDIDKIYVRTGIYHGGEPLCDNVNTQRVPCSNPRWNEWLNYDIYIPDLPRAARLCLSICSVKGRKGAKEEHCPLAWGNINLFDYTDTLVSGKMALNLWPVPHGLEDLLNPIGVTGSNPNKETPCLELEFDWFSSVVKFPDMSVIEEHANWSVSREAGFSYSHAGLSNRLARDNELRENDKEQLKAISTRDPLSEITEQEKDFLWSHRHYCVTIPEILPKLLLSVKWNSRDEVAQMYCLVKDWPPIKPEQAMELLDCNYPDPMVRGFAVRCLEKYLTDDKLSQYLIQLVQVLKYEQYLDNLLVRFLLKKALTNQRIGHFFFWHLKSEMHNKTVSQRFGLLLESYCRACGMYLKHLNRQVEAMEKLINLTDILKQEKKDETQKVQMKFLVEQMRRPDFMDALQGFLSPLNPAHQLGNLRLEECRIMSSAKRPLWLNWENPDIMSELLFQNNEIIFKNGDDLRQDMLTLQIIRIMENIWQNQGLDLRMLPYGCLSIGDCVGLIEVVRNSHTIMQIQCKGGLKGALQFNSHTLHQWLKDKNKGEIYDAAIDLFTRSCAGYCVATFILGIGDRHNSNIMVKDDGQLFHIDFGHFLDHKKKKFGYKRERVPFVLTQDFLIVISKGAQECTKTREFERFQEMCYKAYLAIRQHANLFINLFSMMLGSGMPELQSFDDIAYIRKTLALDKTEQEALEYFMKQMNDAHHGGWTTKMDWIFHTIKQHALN

B1: GST-WW (WW domain of human IQGAP1 fused to GST) (domain or fragment, UniProt P46940 679-719, looked up)
chain: GDNNSKWVKHWVKGGYYYYHNLETQEGGWDEPPNFVQNSMQ
notes: human IQGAP1, residues 679-719 holding the WW domain (the results name the WW domain as residues 684-710); in plasmid pGEXLB; also called GST-WW fusion protein; wild-type GST-WW; source: expressed in bacteria, purified on glutathione-Sepharose; not shown: GST (Schistosoma japonicum), N-terminal, kept
Kd: 130 µM
